What was measured:
[1] = target: Human PSGL-1-Fc (human) (UniProt Q14242); assay: ELISA; binding curves of the VISTA-Fc mutants E125A and F62A (Supplementary Fig. S6D, S6E); conditions not given
[2] = target: hVSIG3-Fc (human) (UniProt Q5DX21); assay: as above
Chain of hVSIG3-Fc (human) (Q5DX21 23-241): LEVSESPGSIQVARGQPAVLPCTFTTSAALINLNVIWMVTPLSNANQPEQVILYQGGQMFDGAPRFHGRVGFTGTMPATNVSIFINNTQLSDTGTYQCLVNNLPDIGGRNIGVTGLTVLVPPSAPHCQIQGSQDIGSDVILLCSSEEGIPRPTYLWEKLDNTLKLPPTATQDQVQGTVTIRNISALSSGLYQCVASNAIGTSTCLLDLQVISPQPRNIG

Chain of Human PSGL-1-Fc (human) (Q14242 42-320): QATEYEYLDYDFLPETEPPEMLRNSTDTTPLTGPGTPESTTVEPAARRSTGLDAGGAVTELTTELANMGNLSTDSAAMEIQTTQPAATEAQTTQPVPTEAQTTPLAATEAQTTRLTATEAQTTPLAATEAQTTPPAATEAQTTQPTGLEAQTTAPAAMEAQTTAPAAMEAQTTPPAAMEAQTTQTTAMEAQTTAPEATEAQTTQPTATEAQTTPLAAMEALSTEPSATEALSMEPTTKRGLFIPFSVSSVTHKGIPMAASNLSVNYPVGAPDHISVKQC

Substance | fold affinity over the WT VISTA interaction [1] [fold] | fold affinity over the WT VISTA interaction [2] [fold]
soluble hVISTA-Fc E125A (Fc fusion) | > 2 | –
soluble hVISTA-Fc F62A (Fc fusion) | – | > 2

Reference: paper PMC7494997
